In assay [1] the target is mouse cytotoxic T lymphocyte associated antigen-4 (CTLA-4) on activated T cells (mouse, UniProt P09793 36-223). In words: cell-based or functional assay.
The target of assay [2] is MHCII (pMHCII) on mouse antigen presenting cells. In words: cell-based or functional assay.

Data on one molecule can be found in US20140348832A1 (Sanofi, published 2014).

B1: BsB, bispecific fusion protein CD80wa-LAG-3-Fc (mouse CD80w88a(aa1-235)-G9-Lag-3(aa25-260)-IgG2a(aa241-474)) (Fc fusion)
chain: VDEQLSKSVKDKVLLPCRYNSPHEDESEDRIYWQKHDKVVLSVIAGKLKVAPEYKNRTLYDNTTYSLIILGLVLSDRGTYSCVVQKKERGTYEVKHLALVKLSIKADFSTPNITESGNPSADTKRITCFASGGFPKPRFSWLENGRELPGINTTISQDPESELYTISSQLDFNTTRNHTIKCLIKYGDAHVSEDFTWGGGGGGGGGGPGKELPVVWAQEGAPVHLPCSLKSPNLDPNFLRRGGVIWQHQPDSGQPTPIPALDLHQGMPSPRQPAPGRYTVLSVAPGGLRSGRQPLHPHVQLEERGLQRGDFSLWLRPALRTDAGEYHATVRLPNRALSCSLRLRVGQASMIASPSGVLKLSDWVLLNCSFSRPDRPVSVHWFQGQNRVPVYNSPRHFLAETFLLLPQVSPLDSGTWGCVLTYRDGFNVSITYNLKVLGLEPVAPRGPTIKPCPPCKCPAPNLLGGPSVFIFPPKIKDVLMISLSPMVTCVVVDVSEDDPDVQISWFVNNVEVLTAQTQTHREDYNSTLRVVSALPIQHQDWMSGKEFKCKVNNKALPAPIERTISKPKGSVRAPQVYVLPPPEEEMTKKQVTLTCMVTDFMPEDIYVEWTNNGKTELNYKNTEPVLDSDGSYFMYSKLRVEKKNWVERNSYSCSVVHEGLHNHHTTKSFSRTPGK
On to B1, for which, in assay [1], the “EC50 of BsB for inducing Tregs in vitro” value is approximately 100 nM and the “potency of BsB at inducing the production of Tregs (EC50)” value is more than 100 nM. Besides, in assay [2], the “EC50 of BsB for inducing Tregs in vitro” value was approximately 100 nM and the “potency of BsB at inducing the production of Tregs (EC50)” value is more than 100 nM.
